Laboratory results: PMC6273323 (2016)
Non-standard residues stand in square brackets, D forms with d. No end group written: not given here. Phe(4-F) = N[C@@H](Cc1ccc(F)cc1)C(=O)O

Target: T1, DF*NNN fluorinated iNOS peptide
T1 chain: D[Phe(4-F)]NNN
Assay: SPR

Kd: 3000 nM
B1: SPSB2 (protein)
chain: MGQTALARGSSSTPTSQALYSDFSPPEGLEELLSAPPPDLVAQRHHGWNPKDCSENIDVKEGGLCFERRPVAQSTDGVRGKRGYSRGLHAWEISWPLEQRGTHAVVGVATALAPLQADHYAALLGSNSESWGWDIGRGKLYHQSKGLEAPQYPAGPQGEQLVVPERLLVVLDMEEGTLGYSIGGTYLGPAFRGLKGRTLYPSVSAVWGQCQVRIRYMGERRVEEPQSLLHLSRLCVRHALGDTRLGQISTLPLPPAMKRYLLYK
